Where “and” joins values, the source holds several entries; their conditions need not be identical. Identical values can stand only once.
Columns and labels:
Assay in all cases: cell-based or functional assay
[1] = biological target: subtilisin 309 variant S99D+S101R+S103A+V104I+G160S+A194P+V199M+V205I+*216aE (B. Lentus) (UniProt P29600)
[2] = biological target: subtilisin 309 variant S99SD+S99A+S216SDP (B. Lentus) (UniProt P29600)
[3] = biological target: Savinase® (subtilisin 309, BLSAVI) (B. Lentus) (UniProt P29600)
[4] = biological target: subtilisin 309 variant S99SD+S99A+N155ND (B. Lentus) (UniProt P29600)
[5] = biological target: subtilisin 309 variant S99SD+S99A+N155NA (B. Lentus) (UniProt P29600)
[6] = biological target: subtilisin 309 variant S99D+S101R+S103A+V104I+G160S+A194P+V199M+V205I+*216aD (B. Lentus) (UniProt P29600)
[7] = biological target: subtilisin 309 variant L217LP+S99SD+S99A (B. Lentus) (UniProt P29600)
[8] = biological target: subtilisin 309 variant L42LN (B. Lentus) (UniProt P29600)
[9] = biological target: subtilisin 309 variant S99SD+S99A+N155NR (B. Lentus) (UniProt P29600)

Residual Activity (%) [1]: 25.4% | Residual Activity (%) [2]: 35% | Residual Activity (%) [3]: < 5% | Residual Activity (%) [4]: 10.7% and 7.1% | Residual Activity (%) [5]: 7.4% | Residual Activity (%) [6]: 24% | Residual Activity (%) [7]: 97% | Residual Activity (%) [8]: 69.2% | Residual Activity (%) [9]: 6.5%
Substance: trypsin inhibitor type IV-0 (Sigma T-1886) (from UniProt P10184 69-517)

Reference: patent publication EP2360247A1
